Results from article PMC3530167.

Target: HLA-DM wild type, biotinylated at a BirA site on the C-terminus of DMα (human) (UniProt P28067)
Assay: SPR

Sequence of UniProt P28067 (P28067 27-261, chain 1 of 2): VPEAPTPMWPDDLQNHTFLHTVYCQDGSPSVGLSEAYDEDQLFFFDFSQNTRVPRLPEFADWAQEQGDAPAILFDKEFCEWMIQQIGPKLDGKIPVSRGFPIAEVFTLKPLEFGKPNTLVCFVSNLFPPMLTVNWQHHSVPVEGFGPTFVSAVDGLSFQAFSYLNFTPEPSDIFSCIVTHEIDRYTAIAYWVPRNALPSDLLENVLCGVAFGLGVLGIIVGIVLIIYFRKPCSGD
Sequence of UniProt P28067 (P28068 19-263, chain 2 of 2, further chain): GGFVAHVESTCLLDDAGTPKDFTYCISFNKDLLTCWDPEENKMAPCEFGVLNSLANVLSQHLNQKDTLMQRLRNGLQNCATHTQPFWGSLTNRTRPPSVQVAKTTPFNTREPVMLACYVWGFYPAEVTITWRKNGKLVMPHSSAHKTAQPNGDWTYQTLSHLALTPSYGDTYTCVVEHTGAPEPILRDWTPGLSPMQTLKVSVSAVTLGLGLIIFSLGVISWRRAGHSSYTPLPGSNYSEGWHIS

**Q.** How did the fold lower affinity at pH 6.5 than at pH 5.5 turn out when “HLA-DR1 with a covalently linked, N-terminally truncated HA-like peptide (P2 to P11) (peptide-MHC)” was run?
**A.** Its fold lower affinity at pH 6.5 than at pH 5.5 is 3 fold.
